From US20200157219A1 (SYSTIMMUNE, published 2020)
Changes are numbered by the printed parent chain.

B1: AB2HU (antibody, human IgG1, kappa, V domains shown)
VH: QEQLLESGGGLVQPGGSLRLSCTASGFSFSSYWMCWVRQAPGKGLEWIGCITTGSGSTYYASWAKRRFTISKDNSKNTVTLQMNSLRAEDTAVYYCTRAFDLWGQGTLVTVSS
VL: DIQMTQSPSSLSASVGDRVTITCQASQSIYSYLNWYQQKPGKAPKLLIYGASNLASGVPSRFSGSGSGTDFTLTISSLQPEDFATYYCQSSWLSGAVGNAFGGGTKVEIKR
notes: Humanized, human gamma-1 / kappa constant domains as in the full-length entries; also called humanized form of antibody AB2
B2: AB3HU (antibody, human IgG1, kappa, V domains shown)
VH: QEQVKETGGGLVQPGGSLRLSCAASGFTISSYGVSWVRQAPGKGLEWVALIFPGIGFKDYASWVNGRFTLSSDNAQNTVELQMNSLRAEDTAVYYCARDLDLWGQGTLVTVSS
VL: DIQMTQSPSSLSASVGDRVTITCQSSPSVYSNYLSWYQQKPGKVPKLLIYYASTLASGVPSRFSGSGSGTDFTLTISSLQPEDVATYYCAGGYSSSTRAFGGGTKVEIKR
notes: Humanized, human gamma-1 / kappa constant domains as in the full-length entries; also called humanized form of antibody AB3
B3: recombinant human PD-L2 (ligand, UniProt Q9BQ51 20-220, looked up)
ligand: LFTVTVPKELYIIEHGSNVTLECNFDTGSHVNLGAITASLQKVENDTSPHRERATLLEEQLPLGKASFHIPQVQVRDEGQYQCIIIYGVAWDYKYLTLKVKASYRKINTHILKVPETDEVELTCQATGYPLAEVSWPNVSVPANTSHSRTPEGLYQVTSVLRLKPPPGRNFSCVFWNTHVRELTLASIDLQSQMEPRTHPT
modifications: monobiotinylated, His-tag purified
notes: recombinant soluble protein; also called huPD-L2
B4: AB1HU (antibody, human IgG1, kappa, V domains shown)
VH: EVQLVESGGGLVQPGGSLRLSCAASGFDFSSGYWICWVRQAPGKGLELIACIYAGTSGSTSYASWARGRFTISETSKNTVTLQMNSLRAEDSAVYYCARNLYTYNSLWGQGTLVTVSS
VL: DIQMTQSPSTLSASVGDRVTITCQSSQSVYDNNWLAWYQQKPGKAPKLLIYTVSTLASGVPSRFSGSGSGTEFTLTISSLQPDDFATYYCQGTYYSSGWNFAFGGGTKVEIKR
notes: Humanized, human gamma-1 / kappa constant domains as in the full-length entries; also called humanized form of antibody AB1
B5: AB2 (antibody, human IgG1, kappa, V domains shown)
VH: QEQLVESGGGLVQPEGSLTLTCTASGFSFSSYWMCWVRQAPGKGLEWIGCITTGSGSTYYASWAKRRFTISKTSSTTVTLQMTSLTAADTATYFCTRAFDLWGPGTLVTVSS
VL: DVVMTQTPASVSAVVGGTVTIKCQASQSIYSYLNWYQQKPGQPPKLLIYGASNLASGVSSRFKGSGSGTEFTLTISDLECADAATYYCQCSWLSGAVGNAFGGGTEVVVKR
notes: Rabbit variable domains on human IgG1 / human kappa constant domains; also called AB2 chimeric
B6: AB4HU (antibody, human IgG1, kappa, V domains shown)
VH: EVQLVESGGGLVQPGGSLRLSCTASGFSLSSYAMSWVRQAPGKGLEYIGYIGDTTGIAYASWANGRFTISKDNTKNTVDLQMNSLRAEDTAVYYCARGWSYLDIWGQGTLVTVSS
VL: ALVMTQSPSSLSASVGDRVTITCQASQNIYSNLAWYQQKPGKVPKLLIYQASTLASGVPSRFSGSGYGTDFTLTISSLQPEDVATYYCQGGYYSAALNTFGGGTKVEIKR
notes: Humanized, human gamma-1 / kappa constant domains as in the full-length entries; also called humanized form of antibody AB4
B7: AB3 (antibody, human IgG1, kappa, V domains shown)
VH: B2 VH with R19T, A23K, V48I, R87T, E89A, V93A, Y95F
VL: QVLTQTPSPVSAAVGGTVSISCQSSPSVYSNYLSWFQQKPGQPPKLLIYYASTLASGVPSRFKGSGSGTQFTLTISDVQCDDAATYYCAGGYSSSTRAFGGGTEVVVKR
notes: Rabbit variable domains on human IgG1 / human kappa constant domains; also called AB3 chimeric
B8: AB1 (antibody, human IgG1, kappa, V domains shown)
VH: QSLEESGGDLVKPEGSLTLTCKASGFDFSSGYWICWVRQAPGKGLELIACIYAGTSGSTSYASWARGRFTISETSSTTVTLQMTSLTAADSATYFCARNLYTYNSLWGQGTLVTVSS
VL: QVLTQTASSVSAAVGGTVTISCQSSQSVYDNNWLAWYQQKPGQPPMLLIYTVSTLASGVSSRFKGSGSGTQFTLTISGVQCDDAATYYCQGTYYSSGWNFAFGGGTEVVVKR
notes: Rabbit variable domains on human IgG1 / human kappa constant domains; purified by protein A from HEK-293 supernatant; also called AB1 chimeric; rabbit/human chimeric anti-PD-1 antibody AB1
B9: AB5 (antibody, human IgG1, kappa, V domains shown)
VH: QEQLEESGGDLVKPEGSLTLTCTASGFSFSSSHWICWVRQAPGKGLEWIACIYTGSIDVFYCASWAKGRFTISKPSSTTVTLQVPSLTAADTATYFCARAANTDTTYFNLWGPGTLVTVSS
VL: AYDMTQTPSSVSAAVGGTVTINCQASQSINNQLSWYQQKPGQPPKLLIYGASTLASGVPSRFTGSGSGTEFTLTISGVQCDDAATYYCHVHYCSGGSCFWAFGGGTEVVVKR
notes: Rabbit variable domains on human IgG1 / human kappa constant domains; also called AB5 chimeric
B10: AB4 (antibody, human IgG1, kappa, V domains shown)
VH: QSLEESGGRLVTPGTPLTLTCTVSGFSLSSYAMSWVRQAPGKGLEYIGYIGDTTGIAYASWANGRFTISKTSTTVDLKITSPTTGDTATYFCARGWSYLDIWGQGTLVTVSS
VL: ALVMTQTPSSVSAAVGGTVTINCQASQNIYSNLAWYQQKPGQPPSLLIYQASTLASGVSSRFSGSGYGTEFTLTISDLECADAATYYCQGGYYSAALNTFGGGTEVVVKR
notes: Rabbit variable domains on human IgG1 / human kappa constant domains; also called AB4 chimeric
B11: AB5HU (antibody, human IgG1, kappa, V domains shown)
VH: EVQLLESGGGLVQPGGSLRLSCAASGFTFSSSHWICWVRQAPGKGLEWIACIYTGSIDVFYYASWAKGRFTISRDNSKNTLYLQMNSLRAEDTAVYYCARAANTDTTYFNLWGQGTLVTVSS
VL: AYDMTQSPSSLSASVGDRVTINCQASQSINNQLSWYQQKPGKVPKLLIYGASTLASGVPSRFTGSGSGTDFTLTISSLQPEDVATYYCHVHYCSGGSCFWAFGGGTKVEIKR
notes: Humanized, human gamma-1 / kappa constant domains as in the full-length entries; also called humanized form of antibody AB5; ABSHU [sic]

target: T1, human PD-1 expressed on Jurkat cells (human, UniProt Q15116 25-288); test: flow cytometry on Jurkat/huPD-1 cells, anti-human Fc AF647 secondary, MFI
T1 construct: whole, on cells; also called huPD-1; Jurkat/huPD-1 clonal cell line
T1 sequence (Q15116 25-288): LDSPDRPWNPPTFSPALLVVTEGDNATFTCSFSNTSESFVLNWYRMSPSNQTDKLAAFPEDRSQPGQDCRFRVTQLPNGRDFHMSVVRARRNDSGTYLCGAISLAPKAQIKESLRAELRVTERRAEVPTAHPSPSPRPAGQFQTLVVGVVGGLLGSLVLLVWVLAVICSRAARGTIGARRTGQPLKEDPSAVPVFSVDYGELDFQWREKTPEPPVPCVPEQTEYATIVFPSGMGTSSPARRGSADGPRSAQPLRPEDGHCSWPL
Experimental: The human PD-1 gene was subcloned into the pcDNA3.1 mammalian expression vector and transfected into the Jurkat human T cell line. A clonal cell population expressing high levels of huPD-1 was generated by G418 drug selection and single-cell sorting. This Jurkat/huPD-1 clonal cell line was labeled with FVS520 viability dye (BD Biosciences, 1:2000 dilution) for 15 minutes at room temperature. The labeled cells were then diluted in FACS buffer (2% FBS in PBS), added to V-bottom 96-well plates (50,000 cells per well), and stained with 0-25 nM anti-huPD1 or isotype control antibody on ice for 30 minutes. Cells were washed to remove excess primary antibody, then labeled with Alexa luor 647-conjugated goat anti-human Fc secondary antibody (Jackson Immunoresearch, 1:1600 dilution) on ice for 20 minutes. The labeled cells were then washed with FACS buffer before acquisition on a BD FACSCalibur flow cytometer equipped with the Cytek AMS plate loader system. Data points show the median fluorescence intensity (MFI) on the AF647 channel after gating on live cells. Nonlinear regression methods were used to fit curves to each data set, and error bars represent the standard deviation of duplicate samples.

**Q.** How did the “EC50 (read off the curve)” value turn out when B1 was run?
**A.** ~0.6 nM

**Q.** B2 was tested. Which “EC50 (read off the curve)” value did it give?
**A.** ~1 nM

target: T1, human PD-1 expressed on Jurkat cells; test: flow cytometry on Jurkat/huPD-1 cells, biotinylated PD-L2 detected with streptavidin-APC, MFI

**Q.** Does B3 bind?
**A.** binds

target: T1, human PD-1 expressed on Jurkat cells; test: blocking of biotinylated human PD-L1 binding to Jurkat/huPD-1 cells, flow cytometry, streptavidin-APC MFI
Experimental: The Jurkat/huPD-1 clonal cell line was labeled with FVS520 viability dye (BD Biosciences, 1:2000 dilution) for 15 minutes at room temperature. The labeled cells were then diluted in FACS buffer (2% FBS in PBS), added to V-bottom 96-well plates (50,000 cells per well), and stained with 0-100 nM anti-huPD1 or isotype control antibody on ice for 30 minutes. Cells were washed to remove excess antibody, then labeled with 15 ug/ml His-tag purified, monobiotinylated […] on ice for 30 minutes. Cells were washed again with FACS buffer, then labeled with 0.25 ug/ml APC-conjugated streptavidin on ice for 20 minutes. Cells were washed again with before acquisition on a BD FACSCalibur flow cytometer equipped with the Cytek AMS plate loader system. AB1HU-AB5HU results in this assay are shown in FIG. 3. and show the median fluorescence intensity (MFI) on the APC channel after gating on live cells. Error bars represent the standard deviation of duplicate samples.

**Q.** How did the “IC50 (read off the curve)” value turn out when B1 was run?
**A.** ~2 nM

**Q.** B4 was tested. Which “IC50 (read off the curve)” value did it give?
**A.** ~4 nM

**Q.** B2 was tested. Which “IC50 (read off the curve)” value did it give?
**A.** ~1 nM

target: T1, human PD-1 expressed on Jurkat cells; test: blocking of biotinylated human PD-L2 binding to Jurkat/huPD-1 cells, flow cytometry, streptavidin-APC MFI
Experimental: The Jurkat/huPD-1 clonal cell line was labeled with FVS520 viability dye (BD Biosciences, 1:2000 dilution) for 15 minutes at room temperature. The labeled cells were then diluted in FACS buffer (2% FBS in PBS), added to V-bottom 96-well plates (50,000 cells per well), and stained with 0-100 nM anti-huPD1 or isotype control antibody on ice for 30 minutes. Cells were washed to remove excess antibody, then labeled with 15 ug/ml His-tag purified, monobiotinylated huPD-L2 on ice for 30 minutes. Cells were washed with FACS buffer, then labeled with 0.25 ug/ml APC-conjugated streptavidin on ice for 20 minutes. Cells were washed again with FACS buffer before acquisition on a FACSCalibur flow cytometer equipped with the Cytek AMS plate loader system. […] Error bars represent the standard deviation of duplicate samples.

**Q.** How did the “IC50 (read off the curve)” value turn out when B1 was run?
**A.** ~0.2 nM

**Q.** How did the “IC50 (read off the curve)” value turn out when B2 was run?
**A.** ~1 nM

target: T2, human PD-1 extracellular domain (human, UniProt Q15116 25-170); test: bio-layer interferometry (Octet Red 96), antibody on anti-human Fc biosensor, PD-1 ECD in solution, 1:1 global fit, 30 C
T2 construct: extracellular domain; Soluble analyte in the bio-layer interferometry assay; also called recombinant human PD-1 extracellular domain protein
T2 sequence (Q15116 25-170): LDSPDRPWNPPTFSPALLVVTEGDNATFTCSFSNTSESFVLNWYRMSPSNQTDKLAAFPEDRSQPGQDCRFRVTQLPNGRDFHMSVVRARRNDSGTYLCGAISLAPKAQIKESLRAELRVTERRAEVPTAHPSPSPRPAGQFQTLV
Experimental: The binding kinetics of selected anti-PD-1 antibodies AB1-AB5 and AB1HU-AB5HU was determined by bio-layer interferometry analysis on a ForteBio Octet Red 96 instrument. First, purified antibodies were produced by protein A chromatography using HEK-293 transiently-transfected antibody supernatants. This assay was performed by immobilizing the purified antibodies to anti-human Fc biosensors. PD-1 binding to and dissociation from the biosensors was then observed at various concentrations of PD-1. Specifically, eight anti-human Fc biosensors were placed into wells containing the same purified antibody for 5 minutes. Biosensors were equilibrated in kinetics buffer (Pall ForteBio) for 1 minute to establish a baseline. Association of PD-1 was observed by placing the biosensors into wells containing various concentrations of human PD-1 extracellular domain for 5 minutes. Dissociation was measured after transfer of the biosensors into kinetics buffer and monitoring the interferometry signals for 15 minutes. All steps of the assay were performed at 30° C. with shaking at 1000 RPM. The on and off rates (kon and koff) and the equilibrium binding constant KD were determined using the software provided by the manufacturer and were fit using a 1:1 binding global fit model comprising several of the concentrations tested.

**Q.** B1 was tested. Which Kd did it give?
**A.** 17 nM

**Q.** What about the koff of the same binder?
**A.** 0.0015 s⁻¹

**Q.** What about the kon of the same binder?
**A.** 89000 M⁻¹ s⁻¹

**Q.** Which results are given for B4?
**A.** Kd: 16 nM; koff: 0.0002 s⁻¹; kon: 12000 M⁻¹ s⁻¹

**Q.** Which results are given for B5?
**A.** Kd: 86 nM; koff: 0.0057 s⁻¹; kon: 67000 M⁻¹ s⁻¹

**Q.** For B6, which Kd is on record?
**A.** 4.3 nM

**Q.** And the koff?
**A.** 0.00038 s⁻¹

**Q.** And the kon?
**A.** 87000 M⁻¹ s⁻¹

**Q.** With B2 as the binder, how does the Kd read?
**A.** 1.1 nM

**Q.** And the koff?
**A.** 0.00014 s⁻¹

**Q.** What about the kon of the same binder?
**A.** 130000 M⁻¹ s⁻¹

**Q.** How did the Kd turn out when B7 was run?
**A.** 0.9 nM

**Q.** What about the koff of the same binder?
**A.** 0.00012 s⁻¹

**Q.** What about the kon of the same binder?
**A.** 130000 M⁻¹ s⁻¹

**Q.** Which Kd does the source give for B8 here?
**A.** 4.8 nM

**Q.** What about the koff of the same binder?
**A.** 0.00016 s⁻¹

**Q.** And the kon?
**A.** 36000 M⁻¹ s⁻¹

**Q.** Which Kd does the source give for B9 here?
**A.** 3.3 nM

**Q.** And the koff?
**A.** 0.00026 s⁻¹

**Q.** And the kon?
**A.** 78000 M⁻¹ s⁻¹

**Q.** What does the source list for B10?
**A.** Kd: 9.2 nM; koff: 0.001 s⁻¹; kon: 110000 M⁻¹ s⁻¹

**Q.** Which Kd does the source give for B11 here?
**A.** 6.6 nM

**Q.** What about the koff of the same binder?
**A.** 0.0004 s⁻¹

**Q.** And the kon?
**A.** 61000 M⁻¹ s⁻¹
